In patent US20230114801A1 (SYSTIMMUNE, published 2023):

Experiments:
NKG2D ligand = test: BLI (Octet); conditions and ligand not stated
human 4-1BB = biological target: T1, human 4-1BB (human, UniProt Q07011 24-186, limits assumed); test: BLI (Octet); conditions not stated
T1 construct: Soluble antigen in Octet; construct not described

CD19 = biological target: T2, CD19 (UniProt P15391 20-291, limits assumed); test: BLI (Octet); conditions not stated
T2 sequence (looked up): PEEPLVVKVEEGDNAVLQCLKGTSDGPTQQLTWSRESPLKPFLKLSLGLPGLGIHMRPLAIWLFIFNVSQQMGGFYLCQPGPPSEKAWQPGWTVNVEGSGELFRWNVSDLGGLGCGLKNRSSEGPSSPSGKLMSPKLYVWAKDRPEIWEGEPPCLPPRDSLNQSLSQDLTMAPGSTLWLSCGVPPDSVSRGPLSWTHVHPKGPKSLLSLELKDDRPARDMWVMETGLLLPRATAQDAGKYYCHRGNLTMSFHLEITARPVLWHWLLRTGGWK

human CD3 = biological target: T3, human CD3 (human, UniProt P07766 23-126; P04234 22-105); test: BLI (Octet); conditions not stated
T3 construct: also called His-tagged human CD3; human CD3 (Acro CDD-H52W1)

human PD-L1 = biological target: T4, human PD-L1 (human, UniProt Q9NZQ7 19-238); test: BLI (Octet); conditions not stated
T4 construct: Soluble antigen in Octet; bought; also called human PD-L1 (Acro PD1-H5229)

B1: SI-49PM1 (other)
chain 1: FLNSLFNQEVQIPLTESYCGPCPKNWICYKNNCYQFFDESKNWYESQASCMSQNASLLKVYSKEDQDLLKLVKSYHWMGLVHIPTNGSWQWEDGSILSPNLLTIIEMQKGDCALYASSFKGYIENCSTPNTYICMQRTVGGGGSGGGGSGGGGSGGGGSFLNSLFNQEVQIPLTESYCGPCPKNWICYKNNCYQFFDESKNWYESQASCMSQNASLLKVYSKEDQDLLKLVKSYHWMGLVHIPTNGSWQWEDGSILSPNLLTIIEMQKGDCALYASSFKGYIENCSTPNTYICMQRTVVDGGGGSGGGGSEVQLVESGGGLVQPGGSLRLSCAASGFTISTNAMSWVRQAPGKGLEWIGVITGRDITYYASWAKGRFTISRDNSKNTLYLQMNSLRAEDTAVYYCARDGGSSAITSNNIWGQGTLVTVSSASTKGPSVFPLAPSSKSTSGGTAALGCLVKDYFPEPVTVSWNSGALTSGVHTFPAVLQSSGLYSLSSVVTVPSSSLGTQTYICNVNHKPSNTKVDKRVEPKSCDKTHTCPPCPAPEAAGGPSVFLFPPKPKDTLMISRTPEVTCVVVDVSHEDPEVKFNWYVDGVEVHNAKTKPREEQYASTYRVVSVLTVLHQDWLNGKEYKCAVSNKALPAPIEKTISKAKGQPREPQVCTLPPSRDELTKNQVSLSCAVKGFYPSDIAVEWESNGQPENNYKTTPPVLDSDGSFFLVSKLTVDKSRWQQGNVFSCSVMHEALHNHYTQKSLSLSPGGGGGSGGGGSRSLVESGGGLVQPGGSLRLSCTASGFTISSYHMQWVRQAPGKCLEYIGTISSGGNVYYASSARGRFTISRPSSKNTVDLQMNSLRAEDTAVYYCARDSGYSDPMWGQGTLVTVSSGGGGSGGGGSGGGGSGGGGSDVVMTQSPSSVSASVGDRVTITCQASQNIRTYLSWYQQKPGKAPKLLIYAAANLASGVPSRFSGSGSGTDFTLTISDLEPGDAATYYCQSTYLGTDYVGGAFGCGTKVEIK
chain 2: ENVLTQSPASLSASPGERVTITCSASSSVSYMHWYQQKPGQAPKLWIYDTSKLASGVPSRFSGSGSGNDHTLTISSMEPEDFATYYCFQGSVYPFTFGQGTKVTVLGGGGSGGGGSGGGGSGGGGSQVTLKESGPGLVQPGQTLSLTCAFSGFSLSTSGMGVGWIRQPPGKGLEWLAHIWWDDDKRYNPALKSRLTISKDTSKNQVYLQMNSLDAEDTAVYYCARMELWSYYFDYWGQGTLVTVSSGGGGSGGGGSDVVMTQSPSTLSASVGDRVTINCQASESISSWLAWYQQKPGKAPKLLIYEASKLASGVPSRFSGSGSGTEFTLTISSLQPDDFATYYCQGYFYFISRTYVNSFGGGTKVEIKRTVAAPSVFIFPPSDEQLKSGTASVVCLLNNFYPREAKVQWKVDNALQSGNSQESVTEQDSKDSTYSLSSTLTLSKADYEKHKVYACEVTHQGLSSPVTKSFNRGECGGDKTHTCPPCPAPEAAGGPSVFLFPPKPKDTLMISRTPEVTCVVVDVSHEDPEVKFNWYVDGVEVHNAKTKPREEQYNSTYRVVSVLTVLHQDWLNGKEYKCAVSNKALPAPIEKTISKAKGQPREPQVYTLPPSRDELTKNQVSLWCLVKGFYPSDIAVEWESNGQPENNYKTTPPVLDSDGSFFLYSKLTVDKSRWQQGNVFSCSVMHEALHNRFTQKSLSLSPGGGGGSGGGGSDIQMTQSPSTLSASVGDRVTITCQASQSISSHLNWYQQKPGKAPKLLIYKASTLASGVPSRFSGSGSGTEFTLTISSLQPDDFATYYCQQGYSWGNVDNVFGGGTKVTVLGGGGSGGGGSGGGGSGGGGSEVQLLESGGGLVQPGGSLSLSCAASGFSFSSGYDMCWVRQAPGKGLEWIACIAAGSAGITYDANWAKGRFTISRDNSKNTLYLQMNSLRAEDTAVYYCARSAFSFDYAMDLWGQGTLVTVSS
notes: control penta-miniGNC; D1 NKG2D (tandem dimer), D2 αCD19, D3 αCD3 (Fab), D4 α4-1BB, D5 αPD-L1
NKG2D ligand
  Kd: 24.5 nM
Human 4-1BB
  Kd: 2.74 nM
CD19
  Kd: 5.5 nM
Human CD3
  Kd: 30.2 nM
Human PD-L1
  Kd: 2.23 nM
